Experimental data as given in paper PMC10527876.

Biological target: human CYP2D6 (human) (UniProt P10635)
UniProt P10635, sequence (P10635 whole entry): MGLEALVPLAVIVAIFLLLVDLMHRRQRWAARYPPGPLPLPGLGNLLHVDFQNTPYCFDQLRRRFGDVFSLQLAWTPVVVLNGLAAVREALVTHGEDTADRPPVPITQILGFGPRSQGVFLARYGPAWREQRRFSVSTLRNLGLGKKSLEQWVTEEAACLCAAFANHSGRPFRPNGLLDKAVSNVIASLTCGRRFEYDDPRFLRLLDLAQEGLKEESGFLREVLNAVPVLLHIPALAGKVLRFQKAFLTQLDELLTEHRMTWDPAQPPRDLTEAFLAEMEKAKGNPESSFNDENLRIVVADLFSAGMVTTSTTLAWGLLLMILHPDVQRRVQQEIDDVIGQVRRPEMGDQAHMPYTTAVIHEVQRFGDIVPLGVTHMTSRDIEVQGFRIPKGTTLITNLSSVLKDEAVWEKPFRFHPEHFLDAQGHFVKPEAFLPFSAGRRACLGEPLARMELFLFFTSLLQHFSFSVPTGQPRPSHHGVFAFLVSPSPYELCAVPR

B1: human UGT1A9 (enzyme)
chain: GKLLVVPMDGSHWFTMRSVVEKLILRGHEVVVVMPEVSWQLGRSLNCTVKTYSTSYTLEDLDREFKAFAHAQWKAQVRSIYSLLMGSYNDIFDLFFSNCRSLFKDKKLVEYLKESSFDAVFLDPFDNCGLIVAKYFSLPSVVFARGILCHYLEEGAQCPAPLSYVPRILLGFSDAMTFKERVRNHIMHLEEHLLCHRFFKNALEIASEILQTPVTEYDLYSHTSIWLLRTDFVLDYPKPVMPNMIFIGGINCHQGKPLPMEFEAYINASGEHGIVVFSLGSMVSEIPEKKAMAIADALGKIPQTVLWRYTGTRPSNLANNTILVKWLPQNDLLGHPMTRAFITHAGSHGVYESICNGVPMVMMPLFGDQMDNAKRMETKGAGVTLNVLEMTSEDLENALKAVINDKSYKENIMRLSSLHKDRPVEPLDLAVFWVEFVMRHKGAPHLRPAAHDLTWYQYHSLDVIGFLLAVVLTVAFITFKCCAYGYRKCLGKKGRVKKAHKSKTH
production of 4-hydroxypropranolol from propranolol by CYP2D6 in co-expressing enzyme bags (SAN308), against the CYP2D6 control strain SAN300: 2.8 fold
production of 5-hydroxypropranolol from propranolol by CYP2D6 in co-expressing enzyme bags (SAN308), against the CYP2D6 control strain SAN300: 5.8 fold

B2: human UGT1A8 (enzyme)
chain: GKLLVVPMDGSHWFTMQSVVEKLILRGHEVVVVMPEVSWQLGKSLNCTVKTYSTSYTLEDLDREFMDFADAQWKAQVRSLFSLFLSSSNGFFNLFFSHCRSLFNDRKLVEYLKESSFDAVFLDPFDACGLIVAKYFSLPSVVFARGIACHYLEEGAQCPAPLSYVPRILLGFSDAMTFKERVRNHIMHLEEHLFCQYFSKNALEIASEILQTPVTAYDLYSHTSIWLLRTDFVLDYPKPVMPNMIFIGGINCHQGKPLPMEFEAYINASGEHGIVVFSLGSMVSEIPEKKAMAIADALGKIPQTVLWRYTGTRPSNLANNTILVKWLPQNDLLGHPMTRAFITHAGSHGVYESICNGVPMVMMPLFGDQMDNAKRMETKGAGVTLNVLEMTSEDLENALKAVINDKSYKENIMRLSSLHKDRPVEPLDLAVFWVEFVMRHKGAPHLRPAAHDLTWYQYHSLDVIGFLLAVVLTVAFITFKCCAYGYRKCLGKKGRVKKAHKSKTH
production of 4-hydroxypropranolol from propranolol by CYP2D6 in co-expressing enzyme bags (SAN307), against the CYP2D6 control strain SAN300: 2.1 fold
production of 5-hydroxypropranolol from propranolol by CYP2D6 in co-expressing enzyme bags (SAN307), against the CYP2D6 control strain SAN300: 4.8 fold

B3: human UGT1A7 (enzyme)
chain: GKLLVVPMDGSHWFTMQSVVEKLILRGHEVVVVMPEVSWQLGRSLNCTVKTYSTSYTLEDQDREFMVFADARWTAPLRSAFSLLTSSSNGIFDLFFSNCRSLFNDRKLVEYLKESCFDAVFLDPFDACGLIVAKYFSLPSVVFARGIFCHYLEEGAQCPAPLSYVPRLLLGFSDAMTFKERVWNHIMHLEEHLFCPYFFKNVLEIASEILQTPVTAYDLYSHTSIWLLRTDFVLEYPKPVMPNMIFIGGINCHQGKPVPMEFEAYINASGEHGIVVFSLGSMVSEIPEKKAMAIADALGKIPQTVLWRYTGTRPSNLANNTILVKWLPQNDLLGHPMTRAFITHAGSHGVYESICNGVPMVMMPLFGDQMDNAKRMETKGAGVTLNVLEMTSEDLENALKAVINDKSYKENIMRLSSLHKDRPVEPLDLAVFWVEFVMRHKGAPHLRPAAHDLTWYQYHSLDVIGFLLAVVLTVAFITFKCCAYGYRKCLGKKGRVKKAHKSKTH
production of 4-hydroxypropranolol from propranolol by CYP2D6 in co-expressing enzyme bags (SAN306), against the CYP2D6 control strain SAN300: 3.3 fold
production of 5-hydroxypropranolol from propranolol by CYP2D6 in co-expressing enzyme bags (SAN306), against the CYP2D6 control strain SAN300: 8.4 fold
